Results on 1 variant are retold here after IntAct's records for PubMed 20953186.

First the molecules themselves.
B1: E3 ubiquitin ligase TRAF3IP2 (Homo sapiens), O43734-2 (parent)
chain: MNRSIPVEVDESEPYPSQLLKPIPEYSPEEESEPPAPNIRNMAPNSLSAPTMLHNSSGDFSQAHSTLKLANHQRPVSRQVTCLRTQVLEDSEDSFCRRHPGLGKAFPSGCSAVSEPASESVVGALPAEHQFSFMEKRNQWLVSQLSAASPDTGHDSDKSDQSLPNASADSLGGSQEMVQRPQPHRNRAGLDLPTIDTGYDSQPQDVLGIRQLERPLPLTSVCYPQDLPRPLRSREFPQFEPQRYPACAQMLPPNLSPHAPWNYHYHCPGSPDHQVPYGHDYPRAAYQQVIQPALPGQPLPGASVRGLHPVQKVILNYPSPWDHEERPAQRDCSFPGLPRHQDQPHHQPPNRAGAPGESLECPAELRPQVPQPPSPAAVPRPPSNPPARGTLKTSNLPEELRKVFITYSMDTAMEVVKFVNFLLVNGFQTAIDIFEDRIRGIDIIKWMERYLRDKTVMIIVAISPKYKQDVEGAESQLDEDEHGLHTKYIHRMMQIEFIKQGSMNFRFIPVLFPNAKKEHVPTWLQNTHVYSWPKNKKNILLRLLREEEYVAPPRGPLPTLQVVPL
partner: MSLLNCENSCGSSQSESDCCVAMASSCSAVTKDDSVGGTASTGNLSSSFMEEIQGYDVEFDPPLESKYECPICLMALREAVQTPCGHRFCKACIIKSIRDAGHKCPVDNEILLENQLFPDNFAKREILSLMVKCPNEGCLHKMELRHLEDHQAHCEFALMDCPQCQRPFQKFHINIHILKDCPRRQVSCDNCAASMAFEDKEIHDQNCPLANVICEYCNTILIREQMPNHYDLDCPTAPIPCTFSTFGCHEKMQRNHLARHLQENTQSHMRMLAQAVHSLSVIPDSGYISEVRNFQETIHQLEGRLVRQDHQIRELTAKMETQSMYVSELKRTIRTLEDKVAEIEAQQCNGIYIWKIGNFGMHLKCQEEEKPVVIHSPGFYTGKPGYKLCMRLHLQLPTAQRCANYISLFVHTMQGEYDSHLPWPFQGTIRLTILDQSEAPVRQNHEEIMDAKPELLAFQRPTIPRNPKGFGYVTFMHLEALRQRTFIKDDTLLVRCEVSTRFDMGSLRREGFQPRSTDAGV

The assay covers variants of B1. The settings on record: with traf6_human TRAF6, Q9Y4K3.
For MNRSIPVEVNESEPYPSQLLKPIPEYSPEEESEPPAPNIRNMAPNSLSAPTMLHNSSGDFSQAHSTLKLANHQRPVSRQVTCLRTQVLEDSEDSFCRRHPGLGKAFPSGCSAVSEPASESVVGALPAEHQFSFMEKRNQWLVSQLSAASPDTGHDSDKSDQSLPNASADSLGGSQEMVQRPQPHRNRAGLDLPTIDTGYDSQPQDVLGIRQLERPLPLTSVCYPQDLPRPLRSREFPQFEPQRYPACAQMLPPNLSPHAPWNYHYHCPGSPDHQVPYGHDYPRAAYQQVIQPALPGQPLPGASVRGLHPVQKVILNYPSPWDHEERPAQRDCSFPGLPRHQDQPHHQPPNRAGAPGESLECPAELRPQVPQPPSPAAVPRPPSNPPARGTLKTSNLPEELRKVFITYSMDTAMEVVKFVNFLLVNGFQTAIDIFEDRIRGIDIIKWMERYLRDKTVMIIVAISPKYKQDVEGAESQLDEDEHGLHTKYIHRMMQIEFIKQGSMNFRFIPVLFPNAKKEHVPTWLQNTHVYSWPKNKKNILLRLLREEEYVAPPRGPLPTLQVVPL [D10N], the “effect of a mutation on the interaction” value is listed as “disrupting interaction”.
